# Test results taken from paper PMC10421740, “A universal deep-learning model for zinc finger design enables transcription factor reprogramming”.
# T1: KLF6 reprogrammed with array CDKN1C_172 (synthetic construct, UniProt Q99612 1-199)
# T1 chain: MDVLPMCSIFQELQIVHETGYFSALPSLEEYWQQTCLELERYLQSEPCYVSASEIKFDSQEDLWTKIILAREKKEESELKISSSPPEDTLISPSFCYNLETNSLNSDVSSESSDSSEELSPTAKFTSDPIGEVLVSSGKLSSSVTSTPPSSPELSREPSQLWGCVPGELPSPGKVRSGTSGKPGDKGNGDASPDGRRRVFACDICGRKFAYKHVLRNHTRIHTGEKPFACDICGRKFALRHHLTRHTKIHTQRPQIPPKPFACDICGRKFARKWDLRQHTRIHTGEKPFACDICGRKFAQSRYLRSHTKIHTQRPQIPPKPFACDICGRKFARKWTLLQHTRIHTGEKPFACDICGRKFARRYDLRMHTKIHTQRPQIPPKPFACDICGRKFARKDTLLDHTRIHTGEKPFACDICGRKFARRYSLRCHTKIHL
# T2: ZFN pair 20BC_selected + 20ED_selected (synthetic construct, UniProt P14870;P14870 384-579;384-579)
# T2 chain 1: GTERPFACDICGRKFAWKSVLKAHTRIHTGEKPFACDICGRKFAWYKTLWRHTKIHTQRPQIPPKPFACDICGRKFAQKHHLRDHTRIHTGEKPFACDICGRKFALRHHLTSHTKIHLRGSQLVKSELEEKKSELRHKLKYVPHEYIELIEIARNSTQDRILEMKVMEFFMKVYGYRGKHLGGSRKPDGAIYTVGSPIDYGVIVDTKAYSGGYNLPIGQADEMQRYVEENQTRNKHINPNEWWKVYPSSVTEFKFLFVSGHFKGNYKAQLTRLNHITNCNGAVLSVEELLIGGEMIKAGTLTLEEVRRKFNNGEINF
# T2 chain 2: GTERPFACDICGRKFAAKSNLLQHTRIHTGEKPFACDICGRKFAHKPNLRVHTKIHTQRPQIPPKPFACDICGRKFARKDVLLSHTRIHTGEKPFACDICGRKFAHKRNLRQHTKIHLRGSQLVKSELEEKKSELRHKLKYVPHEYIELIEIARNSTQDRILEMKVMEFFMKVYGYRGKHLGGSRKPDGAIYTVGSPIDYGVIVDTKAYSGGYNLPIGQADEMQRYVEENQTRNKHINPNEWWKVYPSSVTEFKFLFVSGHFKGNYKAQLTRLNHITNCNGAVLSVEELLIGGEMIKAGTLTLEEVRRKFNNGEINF
# T3: KLF6 reprogrammed with array Tet4 Rev (synthetic construct, UniProt Q99612 1-199)
# T3 chain: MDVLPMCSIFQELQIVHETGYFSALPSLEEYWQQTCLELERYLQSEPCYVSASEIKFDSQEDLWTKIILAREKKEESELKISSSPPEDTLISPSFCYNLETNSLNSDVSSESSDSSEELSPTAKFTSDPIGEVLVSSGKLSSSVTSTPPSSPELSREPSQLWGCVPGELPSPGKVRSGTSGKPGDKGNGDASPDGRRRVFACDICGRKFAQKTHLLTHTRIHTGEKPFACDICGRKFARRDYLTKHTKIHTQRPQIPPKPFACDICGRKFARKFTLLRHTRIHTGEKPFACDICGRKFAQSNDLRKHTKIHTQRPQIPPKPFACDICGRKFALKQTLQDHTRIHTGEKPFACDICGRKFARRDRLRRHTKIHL
# T4: KLF6 reprogrammed with array Tet3 Rev (synthetic construct, UniProt Q99612 1-199)
# T4 chain: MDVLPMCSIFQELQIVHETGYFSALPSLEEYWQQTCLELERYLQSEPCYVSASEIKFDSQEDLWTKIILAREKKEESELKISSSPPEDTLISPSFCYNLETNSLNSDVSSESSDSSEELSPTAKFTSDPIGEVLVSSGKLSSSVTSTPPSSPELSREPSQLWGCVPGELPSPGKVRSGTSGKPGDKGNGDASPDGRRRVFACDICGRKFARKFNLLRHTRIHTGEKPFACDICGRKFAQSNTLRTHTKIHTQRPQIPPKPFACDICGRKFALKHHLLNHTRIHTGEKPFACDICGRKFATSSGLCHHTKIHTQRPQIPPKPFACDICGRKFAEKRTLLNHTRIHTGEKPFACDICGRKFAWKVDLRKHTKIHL
# T5: KLF6 reprogrammed with array CDKN1C_76 (synthetic construct, UniProt Q99612 1-199)
# T5 chain: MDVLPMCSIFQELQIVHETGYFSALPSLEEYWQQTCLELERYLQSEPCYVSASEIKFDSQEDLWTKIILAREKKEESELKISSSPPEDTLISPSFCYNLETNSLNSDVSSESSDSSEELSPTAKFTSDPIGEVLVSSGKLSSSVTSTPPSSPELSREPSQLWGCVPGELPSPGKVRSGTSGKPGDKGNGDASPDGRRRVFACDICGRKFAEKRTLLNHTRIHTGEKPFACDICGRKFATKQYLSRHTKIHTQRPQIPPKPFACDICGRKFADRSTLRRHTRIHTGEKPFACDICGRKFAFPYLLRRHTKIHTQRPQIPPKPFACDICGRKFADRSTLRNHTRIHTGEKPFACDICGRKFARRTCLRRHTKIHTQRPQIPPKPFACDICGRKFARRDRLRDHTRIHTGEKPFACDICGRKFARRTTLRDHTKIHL
# B1: DPH1_225 (dsDNA)
# DNA 1: TACCCCTGGGCTCCGGCTGACAGCGACC
# DNA 2: GGTCGCTGTCAGCCGGAGCCCAGGGGTA
# B2: DPH1_24 (dsDNA)
# DNA 1: CTGCTCCGCTGCCCCGGATACGACCAGC
# DNA 2: GCTGGTCGTATCCGGGGCAGCGGAGCAG
# B3: DPH1_99 (dsDNA)
# DNA 1: GCCCCGCCCCGAGATGCGAGGTCTGGAG
# DNA 2: CTCCAGACCTCGCATCTCGGGGCGGGGC
# B4: CDKN1C_224 (dsDNA)
# DNA 1: GCTAATCGCGGCCGGGCCCGCGCGCACG
# DNA 2: CGTGCGCGCGGGCCCGGCCGCGATTAGC
# B5: eGFP site 1 (8 fingers) (dsDNA)
# DNA 1: TGTTCACCGGGGTGGTGCCCATCCTGGTCGAGCT
# DNA 2: AGCTCGACCAGGATGGGCACCACCCCGGTGAACA
# B6: DPH1_126 (dsDNA)
# DNA 1: GGGGTTGGTCCTGTCCCTAACTTGGGGG
# DNA 2: CCCCCAAGTTAGGGACAGGACCAACCCC
# B7: CDKN1C_172 (dsDNA)
# DNA 1: GGGGCGGCCGCCAATCGCCGTGGTGTTG
# DNA 2: CAACACCACGGCGATTGGCGGCCGCCCC
# B8: eGFP site 20 (8 fingers) (dsDNA)
# DNA 1: GAAGGGCATCGACTTCAAGGAGGACGGCAACATC
# DNA 2: GATGTTGCCGTCCTCCTTGAAGTCGATGCCCTTC
# B9: DPH1_151 (dsDNA)
# DNA 1: GAGAAAGGCGCCGCCGCCGTTAAAGGGG
# DNA 2: CCCCTTTAACGGCGGCGGCGCCTTTCTC
# B10: tetO (dsDNA)
# DNA 1: TCTCCCTATCAGTGATAGAGAC
# DNA 2: GTCTCTATCACTGATAGGGAGA
# B11: DPH1_51 (dsDNA)
# DNA 1: ACCTCTGCCAGGGCCGTCTCGGCCGCCC
# DNA 2: GGGCGGCCGAGACGGCCCTGGCAGAGGT
# B12: CDKN1C_150 (dsDNA)
# DNA 1: GGCCGCGGCGGGGCGGGGCAGCGGGGCG
# DNA 2: CGCCCCGCTGCCCCGCCCCGCCGCGGCC
# B13: CDKN1C_125 (dsDNA)
# DNA 1: GCCAATGGGCGGTGCGCGGGGGCCGGGC
# DNA 2: GCCCGGCCCCCGCGCACCGCCCATTGGC
# B14: CDKN1C_102 (dsDNA)
# DNA 1: CGCCCCCGGTGGGTGTGCGCGCGGCCAA
# DNA 2: TTGGCCGCGCGCACACCCACCGGGGGCG
# B15: DPH1_201 (dsDNA)
# DNA 1: ACCCCGAGCTGGTGACAGCGGCCCAAGG
# DNA 2: CCTTGGGCCGCTGTCACCAGCTCGGGGT
# B16: DPH1_75 (dsDNA)
# DNA 1: GAGGGCGCAGCGTTCCAGCACCCACCTC
# DNA 2: GAGGTGGGTGCTGGAACGCTGCGCCCTC
# B17: CDKN1C_76 (dsDNA)
# DNA 1: GCGCGCCCCGGCCGCGCGCCCCGCCCCG
# DNA 2: CGGGGCGGGGCGCGCGGCCGGGGCGCGC
# What was measured:
# [1] = target: ZIM3 reprogrammed with array DPH1_225 (synthetic construct, UniProt Q96PE6 1-166); test: Zn; HEK293T, RT-qPCR 3 days after transfection
# [2] = target: ZIM3 reprogrammed with array DPH1_24 (synthetic construct, UniProt Q96PE6 1-166); test: Zn; HEK293T, RT-qPCR 3 days after transfection
# [3] = target: ZIM3 reprogrammed with array DPH1_99 (synthetic construct, UniProt Q96PE6 1-166); test: Zn; HEK293T, RT-qPCR 3 days after transfection
# [4] = target: KLF6 reprogrammed with array CDKN1C_224 (synthetic construct, UniProt Q99612 1-199); test: Zn; HEK293T, RT-qPCR 3 days after transfection
# [5] = target: ZFN pair 1BC_selected + 1ED_selected (synthetic construct, UniProt P14870;P14870 384-579;384-579); test: Zn; U2OS eGFP disruption, 3 days after nucleofection; settings: tags: N-terminal 3xFLAG and SV40 NLS (kept in the assay, left out here); copies: 1;1
# [6] = target: ZFN pair 1BC_design + 1ED_design (synthetic construct, UniProt P14870;P14870 384-579;384-579); test: as above; settings: tags: N-terminal 3xFLAG and SV40 NLS (kept in the assay, left out here); copies: 1;1
# [7] = target: ZIM3 reprogrammed with array DPH1_126 (synthetic construct, UniProt Q96PE6 1-166); test: Zn; HEK293T, RT-qPCR 3 days after transfection
# [8] = target: T1, KLF6 reprogrammed with array CDKN1C_172; test: Zn; HEK293T, RT-qPCR 3 days after transfection
# [9] = target: T2, ZFN pair 20BC_selected + 20ED_selected; test: Zn; U2OS eGFP disruption, 3 days after nucleofection; settings: tags: N-terminal 3xFLAG and SV40 NLS (kept in the assay, left out here); copies: 1;1
# [10] = target: ZFN pair 20BC_designed + 20ED_designed (synthetic construct, UniProt P14870;P14870 384-579;384-579); test: as above; settings: tags: N-terminal 3xFLAG and SV40 NLS (kept in the assay, left out here); copies: 1;1
# [11] = target: ZIM3 reprogrammed with array DPH1_151 (synthetic construct, UniProt Q96PE6 1-166); test: Zn; HEK293T, RT-qPCR 3 days after transfection
# [12] = target: ZIM3 reprogrammed with array Tet3 Rev (synthetic construct, UniProt Q96PE6 1-166); test: Zn; HEK293T, 7x tetO CMV eGFP reporter
# [13] = target: T3, KLF6 reprogrammed with array Tet4 Rev; test: Zn; HEK293T, 7x tetO minimal CMV GFP reporter
# [14] = target: T4, KLF6 reprogrammed with array Tet3 Rev; test: Zn; HEK293T, 7x tetO minimal CMV GFP reporter
# [15] = target: ZIM3 reprogrammed with array DPH1_51 (synthetic construct, UniProt Q96PE6 1-166); test: Zn; HEK293T, RT-qPCR 3 days after transfection
# [16] = target: KLF6 reprogrammed with array CDKN1C_150 (synthetic construct, UniProt Q99612 1-199); test: Zn; HEK293T, RT-qPCR 3 days after transfection
# [17] = target: KLF6 reprogrammed with array CDKN1C_125 (synthetic construct, UniProt Q99612 1-199); test: Zn; HEK293T, RT-qPCR 3 days after transfection
# [18] = target: KLF6 reprogrammed with array CDKN1C_125 F1-6 (synthetic construct, UniProt Q99612 1-199); test: Zn; HEK293T, RT-qPCR 3 days after transfection
# [19] = target: KLF6 reprogrammed with array CDKN1C_102 (synthetic construct, UniProt Q99612 1-199); test: Zn; HEK293T, RT-qPCR 3 days after transfection
# [20] = target: ZIM3 reprogrammed with array DPH1_201 (synthetic construct, UniProt Q96PE6 1-166); test: Zn; HEK293T, RT-qPCR 3 days after transfection
# [21] = target: ZIM3 reprogrammed with array DPH1_75 (synthetic construct, UniProt Q96PE6 1-166); test: Zn; HEK293T, RT-qPCR 3 days after transfection
# [22] = target: T5, KLF6 reprogrammed with array CDKN1C_76; test: Zn; HEK293T, RT-qPCR 3 days after transfection
# ZIM3 reprogrammed with array DPH1_126, sequence (Q96PE6 other isoform, or with tags, fused parts or gaps): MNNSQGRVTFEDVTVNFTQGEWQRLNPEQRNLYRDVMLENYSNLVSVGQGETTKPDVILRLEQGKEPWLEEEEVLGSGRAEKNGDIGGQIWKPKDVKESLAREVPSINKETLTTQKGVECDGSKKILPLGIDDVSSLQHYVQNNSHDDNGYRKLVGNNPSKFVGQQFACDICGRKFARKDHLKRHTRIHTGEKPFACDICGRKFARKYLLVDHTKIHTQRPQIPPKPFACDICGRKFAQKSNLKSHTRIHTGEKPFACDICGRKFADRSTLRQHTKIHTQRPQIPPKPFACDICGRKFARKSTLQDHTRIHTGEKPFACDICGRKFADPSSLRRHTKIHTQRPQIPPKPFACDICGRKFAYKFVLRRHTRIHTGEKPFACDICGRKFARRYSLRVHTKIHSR
# ZIM3 reprogrammed with array DPH1_151, sequence (Q96PE6 other isoform, or with tags, fused parts or gaps): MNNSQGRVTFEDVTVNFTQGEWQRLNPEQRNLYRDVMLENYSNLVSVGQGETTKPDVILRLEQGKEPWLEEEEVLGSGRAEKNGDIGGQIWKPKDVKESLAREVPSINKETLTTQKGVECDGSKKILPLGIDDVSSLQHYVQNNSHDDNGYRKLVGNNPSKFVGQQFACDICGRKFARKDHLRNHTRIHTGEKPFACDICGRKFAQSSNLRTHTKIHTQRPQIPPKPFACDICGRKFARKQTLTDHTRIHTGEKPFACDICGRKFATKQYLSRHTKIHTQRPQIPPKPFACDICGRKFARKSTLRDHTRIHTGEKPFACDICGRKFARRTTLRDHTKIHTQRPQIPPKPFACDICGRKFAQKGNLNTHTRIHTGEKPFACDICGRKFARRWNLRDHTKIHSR
# ZIM3 reprogrammed with array Tet3 Rev, sequence (Q96PE6 other isoform, or with tags, fused parts or gaps): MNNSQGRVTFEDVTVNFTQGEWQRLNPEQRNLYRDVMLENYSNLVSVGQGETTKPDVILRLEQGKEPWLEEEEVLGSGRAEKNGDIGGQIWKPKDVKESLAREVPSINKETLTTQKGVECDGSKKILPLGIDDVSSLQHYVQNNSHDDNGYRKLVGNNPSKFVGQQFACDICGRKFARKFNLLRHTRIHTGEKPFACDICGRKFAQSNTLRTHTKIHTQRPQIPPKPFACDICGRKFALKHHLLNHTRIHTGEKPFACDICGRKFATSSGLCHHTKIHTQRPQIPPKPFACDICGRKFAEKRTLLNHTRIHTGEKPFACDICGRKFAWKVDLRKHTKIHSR
# ZIM3 reprogrammed with array DPH1_225, sequence (Q96PE6 other isoform, or with tags, fused parts or gaps): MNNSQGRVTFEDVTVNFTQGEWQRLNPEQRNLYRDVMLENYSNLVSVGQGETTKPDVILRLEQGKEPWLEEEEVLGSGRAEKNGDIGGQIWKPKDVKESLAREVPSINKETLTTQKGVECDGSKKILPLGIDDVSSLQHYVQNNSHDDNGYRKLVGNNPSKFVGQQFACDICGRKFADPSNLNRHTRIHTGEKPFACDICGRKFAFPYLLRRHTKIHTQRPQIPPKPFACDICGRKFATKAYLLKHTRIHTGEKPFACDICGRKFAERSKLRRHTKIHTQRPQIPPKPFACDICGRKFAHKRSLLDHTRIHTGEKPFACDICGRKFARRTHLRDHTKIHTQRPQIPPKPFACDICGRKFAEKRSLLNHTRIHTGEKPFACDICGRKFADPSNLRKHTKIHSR
# ZIM3 reprogrammed with array DPH1_99, sequence (Q96PE6 other isoform, or with tags, fused parts or gaps): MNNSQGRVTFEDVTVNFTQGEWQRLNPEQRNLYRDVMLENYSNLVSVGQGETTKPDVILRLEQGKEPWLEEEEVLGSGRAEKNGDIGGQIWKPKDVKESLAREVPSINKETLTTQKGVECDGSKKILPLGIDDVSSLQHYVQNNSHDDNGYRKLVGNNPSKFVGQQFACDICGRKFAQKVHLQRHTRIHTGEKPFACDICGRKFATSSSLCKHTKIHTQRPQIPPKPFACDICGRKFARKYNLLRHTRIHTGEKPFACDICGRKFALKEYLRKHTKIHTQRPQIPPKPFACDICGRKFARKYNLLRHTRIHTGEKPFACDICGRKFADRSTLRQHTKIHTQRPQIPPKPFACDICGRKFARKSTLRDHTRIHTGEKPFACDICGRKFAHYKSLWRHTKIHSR
# ZIM3 reprogrammed with array DPH1_201, sequence (Q96PE6 other isoform, or with tags, fused parts or gaps): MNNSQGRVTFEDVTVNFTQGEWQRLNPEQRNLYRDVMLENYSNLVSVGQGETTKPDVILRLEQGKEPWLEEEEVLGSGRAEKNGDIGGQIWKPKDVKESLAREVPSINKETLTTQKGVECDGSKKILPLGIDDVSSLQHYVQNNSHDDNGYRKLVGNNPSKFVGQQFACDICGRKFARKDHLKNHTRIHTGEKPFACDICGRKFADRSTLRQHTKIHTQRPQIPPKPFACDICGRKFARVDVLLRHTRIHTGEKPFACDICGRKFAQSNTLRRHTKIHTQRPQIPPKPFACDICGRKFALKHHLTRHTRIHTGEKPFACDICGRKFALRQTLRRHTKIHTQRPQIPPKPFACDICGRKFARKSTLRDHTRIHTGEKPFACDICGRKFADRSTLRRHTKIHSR
# ZIM3 reprogrammed with array DPH1_51, sequence (Q96PE6 other isoform, or with tags, fused parts or gaps): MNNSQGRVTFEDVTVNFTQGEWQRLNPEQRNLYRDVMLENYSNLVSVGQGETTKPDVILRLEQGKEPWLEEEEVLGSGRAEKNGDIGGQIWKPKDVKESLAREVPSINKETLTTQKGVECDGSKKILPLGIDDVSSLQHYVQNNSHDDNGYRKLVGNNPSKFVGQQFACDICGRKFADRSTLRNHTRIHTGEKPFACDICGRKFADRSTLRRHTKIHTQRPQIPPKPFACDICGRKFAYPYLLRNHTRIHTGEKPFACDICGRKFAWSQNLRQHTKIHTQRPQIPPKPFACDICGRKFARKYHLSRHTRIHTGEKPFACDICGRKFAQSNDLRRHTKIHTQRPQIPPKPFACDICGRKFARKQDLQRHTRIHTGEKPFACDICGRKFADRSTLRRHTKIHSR
# ZIM3 reprogrammed with array DPH1_24, sequence (Q96PE6 other isoform, or with tags, fused parts or gaps): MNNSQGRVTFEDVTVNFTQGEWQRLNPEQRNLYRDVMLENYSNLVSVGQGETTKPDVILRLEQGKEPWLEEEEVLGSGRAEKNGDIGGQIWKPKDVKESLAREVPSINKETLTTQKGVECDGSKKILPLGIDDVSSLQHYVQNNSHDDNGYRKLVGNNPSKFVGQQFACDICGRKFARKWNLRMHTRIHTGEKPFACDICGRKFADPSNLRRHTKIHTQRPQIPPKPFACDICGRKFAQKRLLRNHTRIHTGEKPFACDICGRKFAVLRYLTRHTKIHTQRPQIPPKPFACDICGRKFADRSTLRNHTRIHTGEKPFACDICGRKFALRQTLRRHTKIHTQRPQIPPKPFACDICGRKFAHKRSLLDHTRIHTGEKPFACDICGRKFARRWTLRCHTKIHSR
# ZIM3 reprogrammed with array DPH1_75, sequence (Q96PE6 other isoform, or with tags, fused parts or gaps): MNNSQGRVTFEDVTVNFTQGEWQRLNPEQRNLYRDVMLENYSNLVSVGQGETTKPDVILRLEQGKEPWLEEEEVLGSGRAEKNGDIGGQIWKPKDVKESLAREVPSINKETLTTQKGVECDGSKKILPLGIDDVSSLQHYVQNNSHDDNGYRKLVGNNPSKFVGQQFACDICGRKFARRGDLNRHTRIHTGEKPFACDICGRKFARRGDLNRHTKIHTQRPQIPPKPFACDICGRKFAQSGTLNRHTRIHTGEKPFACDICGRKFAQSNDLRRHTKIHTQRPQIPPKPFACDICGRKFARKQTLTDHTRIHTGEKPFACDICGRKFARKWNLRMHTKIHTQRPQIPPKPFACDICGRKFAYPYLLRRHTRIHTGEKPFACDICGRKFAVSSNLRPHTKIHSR
binder,measurement,setting,value
B1,binding signal,[1],"~0.62 relative expression (lower = more activity, repressor)"
B2,binding signal,[2],"~0.27 relative expression (lower = more activity, repressor)"
B3,binding signal,[3],"~0.68 relative expression (lower = more activity, repressor)"
B4,binding signal,[4],~2.5 relative expression (higher = more activity)
B5,binding signal,[5],~53 % GFP-negative cells (higher = more activity)
same,binding signal,[6],~35 % GFP-negative cells (higher = more activity)
B6,binding signal,[7],"~0.14 relative expression (lower = more activity, repressor)"
B7,binding signal,[8],~3.3 relative expression (higher = more activity)
B8,binding signal,[9],~69 % GFP-negative cells (higher = more activity)
same,binding signal,[10],~17 % GFP-negative cells (higher = more activity)
B9,binding signal,[11],"~0.7 relative expression (lower = more activity, repressor)"
B10,binding signal,[12],"~0.23 normalised eGFP fluorescence (lower = more activity, repressor)"
same,binding signal,[13],~2500 mean GFP fluorescence (higher = more activity)
same,binding signal,[14],~41000 mean GFP fluorescence (higher = more activity)
B11,binding signal,[15],"~0.61 relative expression (lower = more activity, repressor)"
B12,binding signal,[16],~9 relative expression (higher = more activity)
B13,binding signal,[17],~43 relative expression (higher = more activity)
same,binding signal,[18],~16.5 relative expression (higher = more activity)
B14,binding signal,[19],~2.5 relative expression (higher = more activity)
B15,binding signal,[20],"~0.43 relative expression (lower = more activity, repressor)"
B16,binding signal,[21],"~0.62 relative expression (lower = more activity, repressor)"
B17,binding signal,[22],~2 relative expression (higher = more activity)
